From patent US20180028516A1, “METHODS AND DEVICES FOR THE TREATMENT OF OCULAR DISEASES IN HUMAN SUBJECTS” (CLEARSIDE BIOMEDICAL, INC., priority 2012, published 2018) come the findings set out here.

Some results are limits rather than exact numbers.

The nature of data set [1]: Delivery and clearance of sodium fluorescein from the suprachoroidal space in live rabbits (Example 5). The conditions noted are these: SCS injection. It is filed as in vivo, rabbit. How it is done: The delivery of a fluorescent molecule (sodium fluorescein) to the suprachoroidal space was evaluated using rabbits according to approved live animal experimental protocols. A one dimensional scan of the eye (through line of sight) was taken within the first five minutes after injection to determine the dispersion of the fluorescent molecule in the eye (FIG. 14). The y-axis indicates the fluorescent intensity (i.e., the concentration) and the x-axis represents the position in the eye from front (160) to back (0). Thus, the results illustrate that within the first 5 minutes after injection, the fluorescein had already flowed through the suprachoroidal space to the back of the eye. with some remaining at the initial insertion site.
Similar scans were taken to evaluate the rate of clearance of fluorescein from the suprachoroidal space over time (FIG. 15). The fluorescent intensity was measured in two regions of the eye (the suprachoroidal space and mid-vitreous region) over time. The results illustrate that the bulk of the material injected remains in the suprachoroidal space without passing into the mid-vitreous region and that the material substantially cleared the suprachoroidal space within 24 hours.

The nature of data set [2]: Phase 1 safety and tolerability of suprachoroidal bevacizumab in patients with CNV secondary to wet AMD (Example 14). It is filed as in vivo, human. The procedure: (§1) The safety and tolerabilty of a single microneedle injection of bevacizumab into the suprachoroidal space (SCS) using a micronocedle was evaluated. Four adult patients with choroidal neovascularization (CNV), secondary to wet age-related macular degeneration (AMD), were enrolled in a phase 1, single-center, open-label study. Each subject provided informed consent and was screened for eligibility. […] Treated patients remained in the clinic for 4 hours for observation and then retumed multiple times for follow-up during a 2 month period. Major safety examinations included intraocular pressure (IOP), angiograms, biomicroscopy, indirect ophthalmoscopy, fundus photography, optical coherence tomography (OCT), visual acuity (VA) (Table 8), and assessment of pain.

Data set [3] can be described thus: Visual acuity of patients after suprachoroidal bevacizumab (Example 14). It is filed as in vivo, human. How it is done: as §1

As for `O=C1OC2(c3ccc(O)cc3Oc3cc(O)ccc32)c2ccccc21` [fluorescein, sodium fluorescein], the “time to substantial clearance from the suprachoroidal space” value in data set [1] (fluorescent intensity) is no more than 24 h. Also, the “time for fluorescein to flow through the suprachoroidal space to the back of the eye” value in data set [1] (one dimensional fluorescence scan) was no more than 5 min.

In the case of “bevacizumab: humanized monoclonal antibody, angiogenesis inhibitor (Avastin)”, the “effect on IOP, OCT or VA” value in data set [2] (100 μL bevacizumab SCS, any subject) is given as “No negative effect”. Moreover, in data set [2] (100 μL bevacizumab SCS, ophthalmic examinations), the “adverse events related to bevacizumab or the method of administration” value is reported as “no unexpected or serious adverse events”. Also, in data set [2] (100 μL bevacizumab SCS, topical anesthesia, four patients), the “level of pain recorded for the administration” value was “moderate”. Further, in data set [2] (patient number 3, 56 days after injection vs before injection), the “intraretinal fluid (OCT)” value was “Decrease”. Moreover, in data set [2] (two months following treatment), the “rescue therapy or reinjection” value was “No patients required rescue therapy or reinjection”. In addition, the “Visual Acuity” value is 20/40 in data set [3] (Patient 1, 28 day post dose); 20/40 in data set [3] (Patient 1, 56 day post dose); 20/80 in data set [3] (Patient 1, Pre-does); 20/40 in data set [3] (Patient 1, Screening); 20/20 in data set [3] (Patient 2, 28 day post dose); 20/20 in data set [3] (Patient 2, 56 day post dose). The “Visual Acuity” value is 20/40 in data set [3] (Patient 2, Pre-does); 20/40 in data set [3] (Patient 2, Screening); 20/250 in data set [3] (Patient 3, 28 day post dose); 20/250 in data set [3] (Patient 3, 56 day post dose); 20/320 in data set [3] (Patient 3, Pre-does); 20/320 in data set [3] (Patient 3, Screening). Also, the “Visual Acuity” value in data set [3] (Patient 4, 28 day post dose) is given as 20/400; in data set [3] (Patient 4, 56 day post dose), 20/400; in data set [3] (Patient 4, Pre-does), 20/400; in data set [3] (Patient 4, Screening), 20/400.
